Sequences and labels used below:
T1: HCoV-OC43 spike antigens (bead panel) (HCoV-OC43, UniProt P36334 14-1297)
T1 sequence: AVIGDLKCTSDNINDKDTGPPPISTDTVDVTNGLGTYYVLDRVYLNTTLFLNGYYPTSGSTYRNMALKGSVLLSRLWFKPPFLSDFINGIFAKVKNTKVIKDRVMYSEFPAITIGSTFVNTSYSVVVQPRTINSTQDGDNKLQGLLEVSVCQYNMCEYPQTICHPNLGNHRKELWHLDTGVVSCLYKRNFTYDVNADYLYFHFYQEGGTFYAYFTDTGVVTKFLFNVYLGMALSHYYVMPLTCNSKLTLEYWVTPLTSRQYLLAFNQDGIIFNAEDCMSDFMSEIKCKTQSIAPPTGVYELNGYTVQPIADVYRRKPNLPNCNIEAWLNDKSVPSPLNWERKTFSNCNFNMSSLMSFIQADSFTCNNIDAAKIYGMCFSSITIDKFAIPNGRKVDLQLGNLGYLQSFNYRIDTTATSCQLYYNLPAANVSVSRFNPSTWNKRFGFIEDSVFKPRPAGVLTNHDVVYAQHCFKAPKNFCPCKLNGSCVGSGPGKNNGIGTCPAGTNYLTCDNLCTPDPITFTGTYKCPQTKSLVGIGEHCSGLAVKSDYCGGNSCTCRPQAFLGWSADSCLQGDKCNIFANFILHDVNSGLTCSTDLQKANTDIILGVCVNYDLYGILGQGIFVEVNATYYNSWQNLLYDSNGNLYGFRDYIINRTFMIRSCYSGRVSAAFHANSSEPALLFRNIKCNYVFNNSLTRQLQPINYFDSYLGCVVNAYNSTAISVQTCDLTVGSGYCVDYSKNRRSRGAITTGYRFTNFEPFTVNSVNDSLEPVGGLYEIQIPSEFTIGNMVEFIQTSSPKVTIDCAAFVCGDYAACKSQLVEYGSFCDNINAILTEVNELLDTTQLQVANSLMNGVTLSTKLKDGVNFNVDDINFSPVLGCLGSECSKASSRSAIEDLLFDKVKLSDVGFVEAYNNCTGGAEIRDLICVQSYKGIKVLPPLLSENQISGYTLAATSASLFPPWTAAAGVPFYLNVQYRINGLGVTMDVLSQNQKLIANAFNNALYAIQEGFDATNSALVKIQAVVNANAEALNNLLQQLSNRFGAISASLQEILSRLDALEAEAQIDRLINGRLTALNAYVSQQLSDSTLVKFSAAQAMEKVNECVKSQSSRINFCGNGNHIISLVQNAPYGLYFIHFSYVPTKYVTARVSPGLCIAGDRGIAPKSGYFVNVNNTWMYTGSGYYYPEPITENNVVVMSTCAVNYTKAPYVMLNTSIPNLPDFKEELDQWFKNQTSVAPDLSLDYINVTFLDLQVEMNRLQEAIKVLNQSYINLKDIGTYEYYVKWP

T2: HCoV-229E spike antigens (bead panel) (HCoV-229E, UniProt P15423 16-1115)
T2 sequence: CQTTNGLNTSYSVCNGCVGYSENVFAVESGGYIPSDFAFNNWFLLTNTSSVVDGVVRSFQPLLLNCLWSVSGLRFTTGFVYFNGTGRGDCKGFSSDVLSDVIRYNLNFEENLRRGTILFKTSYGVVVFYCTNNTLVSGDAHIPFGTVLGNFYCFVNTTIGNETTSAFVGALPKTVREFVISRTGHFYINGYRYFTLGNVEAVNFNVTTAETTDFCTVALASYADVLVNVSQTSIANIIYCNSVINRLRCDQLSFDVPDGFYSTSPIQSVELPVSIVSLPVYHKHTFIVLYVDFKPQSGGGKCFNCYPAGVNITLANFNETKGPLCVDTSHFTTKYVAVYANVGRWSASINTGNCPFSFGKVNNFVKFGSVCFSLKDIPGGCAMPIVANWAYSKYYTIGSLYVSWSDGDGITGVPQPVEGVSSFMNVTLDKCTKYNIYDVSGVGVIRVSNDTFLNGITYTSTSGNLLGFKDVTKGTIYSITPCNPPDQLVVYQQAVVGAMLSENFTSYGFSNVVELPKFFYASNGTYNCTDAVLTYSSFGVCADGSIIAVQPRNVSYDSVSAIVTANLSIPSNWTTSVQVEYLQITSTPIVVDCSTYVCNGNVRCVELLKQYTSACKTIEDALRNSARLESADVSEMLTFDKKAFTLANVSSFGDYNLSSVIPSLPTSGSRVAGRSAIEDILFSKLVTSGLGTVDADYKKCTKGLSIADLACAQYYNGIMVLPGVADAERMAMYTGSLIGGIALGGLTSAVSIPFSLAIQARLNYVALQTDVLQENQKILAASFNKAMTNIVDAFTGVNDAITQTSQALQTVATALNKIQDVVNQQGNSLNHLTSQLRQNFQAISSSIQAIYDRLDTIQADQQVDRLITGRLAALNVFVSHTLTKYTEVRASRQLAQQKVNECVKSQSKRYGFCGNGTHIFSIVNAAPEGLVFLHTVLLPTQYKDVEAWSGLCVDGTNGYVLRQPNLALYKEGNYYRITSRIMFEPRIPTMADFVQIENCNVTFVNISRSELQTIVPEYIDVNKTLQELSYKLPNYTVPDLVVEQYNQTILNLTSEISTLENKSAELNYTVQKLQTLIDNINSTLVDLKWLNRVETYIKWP

B1: COV_1149 (antibody, V domains shown)
VH: QVQLVESGGGVVQPGRSLRLSCAASGFTFSSYGMHWVRQAPGKGLEWVAVISYDGSNKYYADSVKGRFTISRDNSKNTLYLQMNSLRAEDTAVYYCAKTGGGYSYGLGNVWGQGTLVTVSS
VL: QSALTQPASVSGSPGQSITISCTGTSSDVGGYNYVSWYQQHPGKAPKLMIYDVSNRPSGVSNRFSGSKSGNTASLTISGLQAEDEADYYCSSYTSSSTLVVFGGGTKLTVLG
notes: human IgG1
B2: COV_2032 (antibody, V domains shown)
VH: EVQLVESGGGLVQPGGSLRLSCAASGFTFTTYWMHWVRQAPGKGLVWVSRIKTDGSSTNYADSVKGRFTISRDNAKNMLYLQMNSLRAEDTAVYYCAREGPVSIVYFDYWGQGTLVTVSS
VL: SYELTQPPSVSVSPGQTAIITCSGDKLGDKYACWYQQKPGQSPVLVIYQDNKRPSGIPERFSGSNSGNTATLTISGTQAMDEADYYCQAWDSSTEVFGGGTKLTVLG
notes: human IgG1
B3: COV_2172 (SEQ ID NO:872/877) (antibody, V domains shown)
VH: EVQLVESGGGVVQPGRSLRLSCAPSGFTFSTYAMHWVRQAPGKGLEWVAVISYDGSIKYYADSVKGRFTISRDNTMNTVFLQMNSLRAEDTAVYFCAKGGERWELFTSFDYWGQGTQVTVSS
VL: QSALTQPRSVSGSPGQSVTISCTGTSSDVGGYNYVSWYQQHPGKAPKLMIYDVSKRPSGVPDRFSGSKSGNTASLTISGLQAEDEADYYCCSYAGSYTFVFGGGTKLTVLG
B4: COV_2056 (SEQ ID NO:792/797) (antibody, V domains shown)
VH: EVQLVESGGGVVQPGRSLRLSCAASGFTFSIYGMHWVRQAPGKGLEWVALISYDGTNKYYADSVKGRFSISRDDSKNTLYLQMNSLRPEDTAVYYCAKVLMMGDSSGFSLGDAFDIWGQGTMVTVSS
VL: DIQMTQSPSSVSASVGDRVTITCRASQGISNWLAWYQQKPGKAPKLLIYAASSLQSGVPSRFSGSVSGTDFTLTISSLQPEDFATYYCQQANSFPLTFGGGTKVDIKR
B5: COV_2008 (antibody, V domains shown)
VH: QVRVVQSGAEVKNPGASVKVSCKVSGYTLTELSIHWVRQAPGNGLEWMGGFDPEDGETIYAQKFQGRVTMTEDTSTDTAYMELSSLRSDDTAVYYCATAGAITGTPRNFYYYYGMDVWGQGTTVTVSS
VL: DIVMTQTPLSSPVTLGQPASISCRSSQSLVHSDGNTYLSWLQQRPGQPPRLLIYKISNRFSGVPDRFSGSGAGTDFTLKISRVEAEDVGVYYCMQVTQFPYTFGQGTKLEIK
notes: human IgG1
B6: COV_1025 (antibody, V domains shown)
VH: QVQLVESGGGVVQPGRSLRLSCAASGFTFNTYAMHWVRQAPGKGLEWVAIISYDGGNKYYADSMKGRFTISRDNSKNTLYLQMNSLRAEDTAVYYCARARTGNYYYGMDVWGQGTTVTVSS
VL: not shown
notes: human IgG1
B7: COV_1201 (antibody, V domains shown)
VH: QVQLVQSGAEVKKPGASMKVSCKASGYTFTGYYIHWVRQAPGQGLEWMGRINPNSGGTNYAQKFQGRVTMTRDTSISTAYMELSRLRSDDTAVYYCAREYYYVPYGMDVWGQGTTVTVSS
VL: QSALTQPASVSGSPGQSITISCTGTSSDVGGYNFVSWYQHHPGKAPKLMIYEVSNRPSGVSNRFSGSKSGNTASLTISGLQAEDEADYYCSSYTSSSTYVFGTGTKVTVL
notes: human IgG1
B8: COV_2004 (antibody, V domains shown)
VH: QVQLVQSGAEVKKPGASVKVSCKASGYTFTGYYMHWVRQAPGQGLEWMGRINPSSGGTNYAQKFQGRVTMTRDTSISTAYMELSSLRSDDTAVYYCATDGDDGENWFDPWGQGTLVIVSS
VL: DIQMTQSPSSLSASVGDRVTITCRASQGISSWLAWYQQKPEKAPKSLIYAASSLQSGVPSRFSGSGSGTDFTLTISSLQPEDFATYYCQQYNSYPYTFGQGTKLEIK
notes: human IgG1

The first test deals with T1, HCoV-OC43 spike antigens (bead panel). Nature of the test: multiplex bead assay.
For the molecule B1, the binding result is “no binding”.

As for B2, the binding result was “no binding”.

Turning to B3, the binding result is recorded as “no binding”.

For the molecule B4, the binding result is “no binding”.

Consider B5, for which the binding result is reported as “no binding”.

For B6, the binding result was “no binding”.

Turning to B7, the binding result was “no binding”.

The target of another test is T2, HCoV-229E spike antigens (bead panel). Nature of the test: multiplex bead assay.
Consider B8, for which the binding result is “no binding”.

For the molecule B1, the binding result is reported as “no binding”.

Regarding B2, the binding result was “no binding”.

As to B3, the binding result is “no binding”.

B4: the binding result was “no binding”.

Regarding B5, the binding result is recorded as “no binding”.

Take B6: the binding result was “no binding”.

For the molecule B7, the binding result was “no binding”.

Another test has as its target SARS-CoV-1 spike antigens (bead panel) (SARS-CoV-1, UniProt P59594 14-1195). Nature of the test: multiplex bead assay.
B8: the binding result is on record as “no binding”.

In the case of B1, the binding result is “no binding”.

As for B3, the binding result is given as “no binding”.

Turning to B4, the binding result is on record as “no binding”.

Consider B5, for which the binding result is “no binding”.

In the case of B7, the binding result is given as “no binding”.

For the origin of these results see US20240101645A1 (HENRY M JACKSON FOUNDATION FOR THE ADVANCEMENT OF MILITARY …, published 2024).
